Assay results published in PMC4912631, “Structure of the exportin Xpo4 in complex with RanGTP and the hypusine-containing translation factor eIF5A” (Nature Communications, 2016).

B1: eIF5A, full-length, hypusinated (natural protein)
chain: not shown
modifications: hypusine (N-ɛ-(4-amino-2-hydroxybutyl)-lysine) at 50
notes: eIF5A, mammalian; lysine 50 in human numbering carries the hypusine; In the nuclear export assay this protein carried an Alexa568 label; also called eIF5A(Hpu); hypusinated eIF5A; source: E. coli NEB Express, purified; hypusinated in vitro by recombinant deoxyhypusine synthase and deoxyhypusine hydroxylase; eluted from anti-ZZ matrix by bdSENP1; cation exchange; not shown: His14, N-terminal, …
B2: eIF5A truncated (14 N-terminal residues deleted), hypusinated (domain or fragment)
chain: not shown
modifications: hypusine (N-ɛ-(4-amino-2-hydroxybutyl)-lysine) at 50
B3: Xpo4 wild type (natural protein)
chain: not shown
B4: Xpo4 S631A (natural protein)
chain: not shown
B5: Xpo4 E537Q (natural protein)
chain: not shown
B6: Xpo4 D470N (natural protein)
chain: not shown

Legend:
Details in all cases: both partners purified
[1] = target: B3; assay: pull-down; export complexes formed with Xpo4, eIF5A (full-length or truncated) and ZZ-bdNEDD8-tagged RanGTP; immobilised via tagged Ran; eluted by bdNEDP1 protease; SDS-PAGE, Coomassie
[2] = target: B3; assay: SEC; complexes of Xpo4 variants, RanGTP and a 1.3-molar excess of hypusine-containing eIF5A, retrieved on anti-ZZ beads via tagged RanGTP, eluted by bdSENP1, then Superdex 200 16/60 in 15 mM Tris/HCl pH 7.7, 18 mM NaCl, 2 mM Mg(OAc)2, 2 mM DTT; peak fractions on SDS-PAGE
[3] = target: T1, Xpo4 ΔLoopN&C ( (mammalian), UniProt Q9ESJ0 1-1151, Δ241–260 | Δ931–948); assay: as above
T1 construct: Xpo4 (exportin 4), mammalian, with loops 241-260 and 931-948 deleted; 1,113 residues printed; Crystallised form; 1,052 of 1,113 residues are modelled in PDB 5DLQ; also called ΔLoopN&C Xpo4 variant; Xpo4 loop deletion mutant; source: E. coli Top10 F', purified (Ni(II) chelate, bdSENP1 elution, Superdex 200, Mono Q); selenomethionine form from BL21; not shown: His14, N-terminal, cleaved; bdSUMO, …
T1 sequence (Q9ESJ0 other isoform, or with tags, fused parts or gaps Δ241–260 | Δ931–948 | Δ241–260 | Δ931–948 | mutant): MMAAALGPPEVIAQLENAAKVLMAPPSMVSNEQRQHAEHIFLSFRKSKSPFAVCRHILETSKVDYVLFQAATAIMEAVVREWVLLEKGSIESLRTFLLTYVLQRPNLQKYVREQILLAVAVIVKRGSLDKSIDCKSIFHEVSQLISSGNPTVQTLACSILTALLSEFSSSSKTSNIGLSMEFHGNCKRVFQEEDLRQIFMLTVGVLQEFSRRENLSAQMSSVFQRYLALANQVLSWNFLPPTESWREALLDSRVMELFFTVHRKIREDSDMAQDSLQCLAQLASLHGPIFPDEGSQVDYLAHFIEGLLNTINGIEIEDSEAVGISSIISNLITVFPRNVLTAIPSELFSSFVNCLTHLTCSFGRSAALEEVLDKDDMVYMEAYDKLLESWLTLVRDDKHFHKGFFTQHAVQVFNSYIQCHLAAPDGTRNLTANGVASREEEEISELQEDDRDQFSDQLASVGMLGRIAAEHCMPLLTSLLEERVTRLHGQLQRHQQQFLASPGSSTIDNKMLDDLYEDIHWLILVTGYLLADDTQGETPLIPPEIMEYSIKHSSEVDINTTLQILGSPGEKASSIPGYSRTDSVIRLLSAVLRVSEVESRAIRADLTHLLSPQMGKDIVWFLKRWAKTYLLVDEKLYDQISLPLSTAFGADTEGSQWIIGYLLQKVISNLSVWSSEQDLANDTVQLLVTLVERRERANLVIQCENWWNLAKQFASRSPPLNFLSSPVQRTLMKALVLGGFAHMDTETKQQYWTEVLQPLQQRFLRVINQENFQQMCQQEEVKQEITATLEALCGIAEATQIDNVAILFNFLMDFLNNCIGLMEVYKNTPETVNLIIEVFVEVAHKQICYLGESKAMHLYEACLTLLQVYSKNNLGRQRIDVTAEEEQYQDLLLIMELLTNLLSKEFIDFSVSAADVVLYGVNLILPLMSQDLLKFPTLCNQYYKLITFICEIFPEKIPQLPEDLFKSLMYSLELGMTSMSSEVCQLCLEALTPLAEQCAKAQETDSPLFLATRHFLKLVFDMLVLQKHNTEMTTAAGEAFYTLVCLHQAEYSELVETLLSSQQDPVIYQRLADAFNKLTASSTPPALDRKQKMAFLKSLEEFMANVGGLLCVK

[4] = target: ZZ-bdNEDD8-tagged RanGTP ( (mammalian), UniProt P62826 5-180, Q69L); assay: pull-down; 1 μM Xpo4 wild type or mutants, 0.75 μM ZZ-bdNEDD8-tagged RanGTP, 1.25 μM hypusinated eIF5A, 100 mM NaCl buffer; retrieved via tagged Ran; eluted by bdNEDP1 protease; SDS-PAGE, Coomassie
[5] = target: RanQ69L (aa 5–180), GTP-bound, untagged ( (mammalian), UniProt P62826 5-180, Q69L); assay: SEC; complexes of Xpo4 variants, RanGTP and a 1.3-molar excess of hypusine-containing eIF5A, retrieved on anti-ZZ beads via tagged RanGTP, eluted by bdSENP1, then Superdex 200 16/60 in 15 mM Tris/HCl pH 7.7, 18 mM NaCl, 2 mM Mg(OAc)2, 2 mM DTT; peak fractions on SDS-PAGE

Xpo4 wild type, sequence (Q9ESJ0 whole entry, the tested form may be a part): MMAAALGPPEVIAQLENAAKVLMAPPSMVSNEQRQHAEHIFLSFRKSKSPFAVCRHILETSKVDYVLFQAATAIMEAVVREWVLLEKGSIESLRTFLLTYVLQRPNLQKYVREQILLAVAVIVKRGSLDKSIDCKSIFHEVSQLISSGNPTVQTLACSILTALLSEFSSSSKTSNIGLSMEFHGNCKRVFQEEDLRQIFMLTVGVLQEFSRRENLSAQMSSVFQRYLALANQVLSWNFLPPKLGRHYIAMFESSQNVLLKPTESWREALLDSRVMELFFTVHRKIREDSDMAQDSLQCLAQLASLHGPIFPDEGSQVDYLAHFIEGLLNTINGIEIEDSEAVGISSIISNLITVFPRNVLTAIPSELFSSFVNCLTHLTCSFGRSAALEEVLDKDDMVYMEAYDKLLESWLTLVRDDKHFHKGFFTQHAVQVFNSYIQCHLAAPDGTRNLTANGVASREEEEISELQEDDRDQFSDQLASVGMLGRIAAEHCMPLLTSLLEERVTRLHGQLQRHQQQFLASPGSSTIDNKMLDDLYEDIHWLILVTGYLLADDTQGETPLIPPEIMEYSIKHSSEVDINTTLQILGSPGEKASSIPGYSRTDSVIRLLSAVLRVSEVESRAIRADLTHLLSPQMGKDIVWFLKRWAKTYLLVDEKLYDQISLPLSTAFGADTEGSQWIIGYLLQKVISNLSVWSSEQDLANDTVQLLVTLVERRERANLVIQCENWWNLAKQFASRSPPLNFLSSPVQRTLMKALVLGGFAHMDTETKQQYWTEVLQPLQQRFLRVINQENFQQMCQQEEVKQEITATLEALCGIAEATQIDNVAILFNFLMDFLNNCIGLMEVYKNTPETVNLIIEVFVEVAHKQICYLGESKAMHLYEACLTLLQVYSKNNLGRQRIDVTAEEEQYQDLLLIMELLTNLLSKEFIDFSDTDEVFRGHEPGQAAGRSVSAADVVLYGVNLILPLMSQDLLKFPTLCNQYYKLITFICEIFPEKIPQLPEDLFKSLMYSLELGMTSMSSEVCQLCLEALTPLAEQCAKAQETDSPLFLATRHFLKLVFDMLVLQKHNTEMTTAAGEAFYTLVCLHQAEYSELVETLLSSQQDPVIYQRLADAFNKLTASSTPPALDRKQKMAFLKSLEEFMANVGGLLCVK

| Binder | binding result [4] | also measured |
| --- | --- | --- |
| B1 | – | binding result [1]: binds |
| B2 | – | binding result [2]: binds; binding result [3]: binds |
| B3 | binds | binding result [5]: binds |
| B4 | binds | – |
| B5 | binds | – |
| B6 | binds | – |
